Measurements as given in patent publication US6767890.

Biological target: Galanin receptor of rat ileum (rat)
Test: cell-based or functional assay

## Galanin (peptide)
  Agonism (contraction of rat ileum), galanin 0.1 µM: 100%
  Agonism, average of two preparations, galanin 0.1 µM: 100%
